B5: CASP1-CARD-SNAP (domain or fragment, human, UniProt P29466 1-92, looked up)
chain: MADKVLKEKRKLFIRSMGEGTINGLLDELLQTRVLNKEEMEKVKRENATVMDKTRALIDSVIPKGAQACQICITYICEEDSYLAGTLGLSAD
modifications: Alexa Fluor 647 (BG-Alexa dye) on the SNAP tag in the native gel assay
notes: CARD domain of human caspase-1, residues 1-92; A 3C protease site lies between the CARD and the SNAP tag; also called SNAP-tagged CASP1-CARD; fluorescently labeled CASP1-CARD; not shown: SNAP, C-terminal, kept

Legend:
[1] = molecular target: the molecule itself; assay: cryo-EM structure; helical reconstruction of CARD filaments; ~2 mg/ml on Quantifoil R1.2/1.3 grids, Titan Krios 300 kV, RELION 3.0
CASP1-CARD-SNAP = molecular target: B5; assay: native gel or EMSA; in vitro oligomerization assay: Alexa Fluor 647-labelled monomeric SNAP-ASC-CARD or CASP1-CARD-SNAP (10 uM) mixed with 20 or 5 uM seed oligomer for 15 min at room temperature; Bis-Tris native PAGE, fluorescence scan; settings: both partners purified
[2] = molecular target: the molecule itself; assay: negative stain EM; recombinant NLRP1 constructs at various concentrations (Fig. 1e, f); samples below ~200 uM; NLRP1-CARD alone or with FIIND^UPA at 1:1 molar ratio
[3] = molecular target: T1, NLRC4-CARD without SNAP (filament seed) (human, UniProt Q9NPP4 1-102); assay: native gel or EMSA; in vitro oligomerization assay: Alexa Fluor 647-labelled monomeric SNAP-ASC-CARD or CASP1-CARD-SNAP (10 uM) mixed with 20 or 5 uM seed oligomer for 15 min at room temperature; Bis-Tris native PAGE, fluorescence scan; settings: both partners purified
T1 construct: CARD domain of human NLRC4, residues 1-102, construct without SNAP tag; source: E. coli BL21(DE3), purified (Ni-NTA, SEC), oligomeric seed fraction
T1 sequence (looked up): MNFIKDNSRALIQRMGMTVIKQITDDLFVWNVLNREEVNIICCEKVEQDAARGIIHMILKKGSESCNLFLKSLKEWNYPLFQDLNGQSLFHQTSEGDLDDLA

[4] = molecular target: the molecule itself; assay: as above

B1: recombinant NLRP1-CARD (filament solved by cryo-EM) (domain or fragment, human, UniProt Q9C000 1374-1466, looked up)
chain: DAPQLLHFVDQYREQLIARVTSVEVVLDKLHGQVLSQEQYERVLAENTRPSQMRKLFSLSQSWDRKCKDGLYQALKETHPHLIMELWEKGSKK
notes: CARD domain of human NLRP1, construct 1374-1466; the results say that trimming of the last eight a.a; (1466-1473) stabilised the homogeneous single filament; two CARD constructs (1374-1466, 1374-1473) were cloned; also called NLRP1-CARD core filament; source: E. coli BL21(DE3), purified (Ni-NTA, SEC), concentrated to ~400 uM
B1: binds [1].

B2: recombinant CARD8-CARD (451-537) (domain or fragment, human, UniProt Q9Y2G2-5 451-537, looked up)
chain: AAFVKENHRQLQARMGDLKGVLDDLQDNEVLTENEKELVEQEKTRQSKNEALLSMVEKKGDLALDVLFRSISERDPYLVSYLRQQNL
notes: CARD domain of human CARD8, residues 451-537; the numbers fit the 537-residue isoform; Called 'untagged' in the seeding experiment, there meaning without the SNAP tag; also called CARD8-CARD filaments; CARD8-CARD without SNAP; source: E. coli BL21(DE3), purified (Ni-NTA, SEC)
B2: binds [1]; binds (CASP1-CARD-SNAP).

B3: NLRC4-CARD filament (SNAP tag cleaved off), solved by cryo-EM (domain or fragment, human, UniProt Q9NPP4 1-102, looked up)
chain: MNFIKDNSRALIQRMGMTVIKQITDDLFVWNVLNREEVNIICCEKVEQDAARGIIHMILKKGSESCNLFLKSLKEWNYPLFQDLNGQSLFHQTSEGDLDDLA
notes: CARD domain of human NLRC4, residues 1-102; also called NLRC4-CARD thin filament; source: E. coli BL21(DE3), purified; filaments grown from SNAP-tagged monomer with seeds, SNAP cleaved by 3C protease, Superose 6; not shown: SNAP, C-terminal, cleaved
B3: binds [1].

B4: recombinant NLRP1-FIIND^UPA-CARD (a.a. 1213-1473), bacteria-derived (domain or fragment, human, UniProt Q9C000 1213-1473, looked up)
chain: SPLGVLLKMIHNALRFIPVTSVVLLYHRVHPEEVTFHLYLIPSDCSIRKAIDDLEMKFQFVRIHKPPPLTPLYMGCRYTVSGSGSGMLEILPKELELCYRSPGEDQLFSEFYVGHLGSGIRLQVKDKKDETLVWEALVKPGDLMPATTLIPPARIAVPSPLDAPQLLHFVDQYREQLIARVTSVEVVLDKLHGQVLSQEQYERVLAENTRPSQMRKLFSLSQSWDRKCKDGLYQALKETHPHLIMELWEKGSKKGLLPLSS
notes: C-terminal auto-cleavage fragment (FIIND^UPA-CARD) of human NLRP1, a.a; 1213-1473; also called NLRP1-FIIND^UPA-CARD filaments; SNAP-NLRP1-FIIND^UPA-CARD
B4 was tested, and the “fold lower concentration requirement for oligomerization, against NLRP1-CARD” value [2] was ≥ 50 fold.

B5: binds [3]; binds [4].

— article PMC7794362, “Structural basis for distinct inflammasome complex assembly by human NLRP1 and CARD8” (Nature Communications, 2021)
